Measured values from US20070265350.

Assays:
His-Cdc42 = His-Cdc42 (UniProt P60953)
His-Cdc42, sequence (P60953 whole entry, looked up): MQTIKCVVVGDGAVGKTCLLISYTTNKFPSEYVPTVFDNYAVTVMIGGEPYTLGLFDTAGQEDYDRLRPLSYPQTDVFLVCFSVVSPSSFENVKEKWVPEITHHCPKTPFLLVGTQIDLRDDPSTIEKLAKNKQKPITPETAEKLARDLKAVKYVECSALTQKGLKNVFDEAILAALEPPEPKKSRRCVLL

Demetalated bovine SOD1, sequence (chain, as listed by the source): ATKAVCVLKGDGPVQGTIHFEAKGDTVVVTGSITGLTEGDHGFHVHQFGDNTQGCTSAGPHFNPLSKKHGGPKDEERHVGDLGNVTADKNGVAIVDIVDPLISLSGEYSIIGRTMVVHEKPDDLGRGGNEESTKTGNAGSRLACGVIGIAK
Bovine copper/zinc superoxide dismutase (SOD1), native, sequence (chain, as listed by the source): as above

Substance: Demetalated bovine SOD1
- Rac1 GTPase assay (rate of 32Pi release from γP32-GTP) (Histidine-tagged Rac1): also did not inhibit Rac1 GTPase activity (FIG. 6B)

Substance: Bovine copper/zinc superoxide dismutase (SOD1), native
- Cdc42 GTPase assay (rate of 32Pi release from γP32-GTP) (His-Cdc42): The ability of SOD1 to inhibit GTP hydrolysis was also specific for Rac1 and was not observed with the closely related small GTPase Cdc42
